“Also recorded” adds a separate entry of the source.

Series [1] in a line: SEC analysis of MVP stability samples aged at 37° C. Type of series: physicochemical. As to conditions: anti-VEGF DARPin MVPs stored up to 71 days at 37° C., compared with Conjugate 2. The method, then:
Stability study samples were analyzed using HPLC size exclusion chromatography (SEC). This method was also used to analyze MVP formation and percent unreacted protein after purification. To assess stability via SEC, MVP was filtered to remove particles and analyzed using a Shodex 1 MDa Ohpak LB-804, Shodex KW-404 or 405, or Phenomenex PolySep6000 column with DPBS or appropriate solvent as the mobile phase to get baseline trace at 280 nm, 230 nm, etc. After various time points samples were removed and analyzed using the same SEC method. Increases in retention time and peak width relative to the baseline sample indicated degradation. In addition, decreases in MVP peak area and/or increases in monomer and dimer protein species peak area also indicate MVP degradation. Percent conjugate loss was quantified by comparing peak area differences with time. In the future, the SEC stability analysis will be coupled with MALS to quantify molecular weight and valency changes of the conjugate with age at different temperatures. […]
Stability study samples were also analyzed by coupling SEC with MALS analysis for determination of MVP radius of gyration (Rg,z) and molecular weight at different time points after aging at 37° C. […] System-specific calibration numbers, normalization coefficients, delay volumes, and band broadening terms were determined for the system prior to analysis. […]
Background: SEC sorts molecules by how far they enter the pores of the column.

In another series the target is T1, Human VEGF 165 (Homo sapiens, UniProt P15692).
T1 construct: Avi; purchased R&D Systems AVI-293-050
T1 sequence (P15692 27-191 isoform P15692-4): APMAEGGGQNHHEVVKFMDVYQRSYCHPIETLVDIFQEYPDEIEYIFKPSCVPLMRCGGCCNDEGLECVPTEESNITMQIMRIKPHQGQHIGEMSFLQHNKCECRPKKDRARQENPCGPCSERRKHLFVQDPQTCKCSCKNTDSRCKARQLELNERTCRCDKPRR
The experiment in a line: Accelerated 37° C. stability study, VEGF binding by BLI over time. Conditions: DARPin MVPs, aging 28 and 32 days at 37° C., compared with Conjugate 2. The procedure: MVP stability was assessed by setting up a long term accelerated […] stability by maintaining the MVPs at 37° C. at 5-10X the therapeutic concentration in pH 7.3 vitreous mimetic buffer (Table 19) or pH 7.4 PBS 0.01% tween 20. MVP stability was assessed using SEC MALS or SEC, DLS, and/or BLI analysis of samples removed after various times.
Long-term 37° C. stability studies were set up to assess composition impact on MVP stability. MVPs were synthesized under sterile conditions and diluted to around 0.4 mg/mL in a sterile filtered human vitreous mimetic buffer. This concentration is 5X higher than intravitreal therapeutic concentration of our predicted clinical dose. […] At discrete timepoints, one aliquot from each sample was removed from the plate under sterile conditions and analyzed. […] Then, the protein concentration is measured to adjust for any differences in volume that may have occurred. The binding affinity to is measured using BLI. […] To monitor changes in radius over time, the samples are spun for 5 minutes at 5000 g to remove any large aggregates or dust particles and the Rh is measured using DLS without any sample dilution.
The change in binding affinity over time using biolayer interferometry (BLI) was also determined. […] Analytes were prepared at the top concentration determined in pilot reactions in BLI buffer and serially diluted 1:3 two to five more times using BLI buffer. […]

B1: Conjugate 1: HA conjugate of anti-VEGF DARPin peptide SEQ ID NO: 92, made from Method 5 intermediate 5-4 (MP2H) (conjugate)
chain: GSDLDKKLLEAARAGQDDEVRILMANGADVNARDSTGWTPLHLAAPWGHPEIVEVLLKNGADVNAADFQGWTPLHLAAAVGHLEIVEVLLKYGADVNAQDKFGKTAFDISIDNGNEDLAEILQKAAGGGSGGGS
modifications: hyaluronic acid conjugate; anti-VEGF DARPIN
Regarding B1, the “SEC retention time / radius change with aging” value in series [1] was “much larger increase in retention time and contraction of radius; also recorded: larger losses in radius with aging”. Besides, in the series with Human VEGF 165, the “association constant (Kon) initially and with aging” value was “lower Kon and slower association initially and with aging”.

The record behind these values is patent publication US20230405133A1, “PURIFIED MULTIVALENT PROTEIN-HYALURONIC ACID POLYMER CONJUGATES” (Valitor, Inc., priority 2022, published 2023).
